The values that follow come from patent US20200157217A1 (SYSTIMMUNE, published 2020).

Usually koff stands for a measure of how fast the partners let go of each other.

Numbering of substitutions follows the chain as printed. Read-outs that look alike come from different tables or passages of the source.

The target in assay [1] is T1, human CD3 Delta/Epsilon Fc fusion protein (human, UniProt P04234 22-105; P07766 23-126).
T1 construct: Construct limits and Fc are not described; also called Human CD3 Delta-Epsilon Fc ("Knobs-into-hole"-KnH)
T1 sequence (P04234 22-105, stated change not applied, chain 1 of 2): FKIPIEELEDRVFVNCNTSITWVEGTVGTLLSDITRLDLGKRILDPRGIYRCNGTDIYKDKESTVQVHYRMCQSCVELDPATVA
T1 sequence (P07766 23-126, stated change not applied, chain 2 of 2): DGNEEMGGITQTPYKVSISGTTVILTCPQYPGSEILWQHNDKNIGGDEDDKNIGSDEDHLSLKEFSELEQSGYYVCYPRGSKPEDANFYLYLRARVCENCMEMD
Kind of assay: Octet (bio-layer interferometry), bivalent kdis.

Assay [2] deals with Cyno T cell line. Kind of assay: FACS, B cell culture supernatant on the cynomolgus T cell line (HSC-F per paragraph 87). Background: Flow cytometry measures light scatter and fluorescence of single cells or particles in a stream.
The target in assay [3] is T2, human CD3 Gamma/Epsilon Fc fusion protein (human, UniProt P09693 23-116; P07766 23-126).
T2 construct: Construct limits and Fc are not described; also called Gamma-Epsilon Fc (KnH)
T2 sequence (P09693 23-116, chain 1 of 2): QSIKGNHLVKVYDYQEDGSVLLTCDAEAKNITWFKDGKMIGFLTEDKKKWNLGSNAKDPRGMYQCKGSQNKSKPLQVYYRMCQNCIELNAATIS
T2 sequence (P07766 23-126, chain 2 of 2): as the sequence (P07766 23-126, stated change not applied, chain 2 of 2) above
Briefly: Octet (bio-layer interferometry), bivalent kdis; antigen printed 'Human δ/γ - Fc', taken as the Gamma/Epsilon Fc that paragraph 95 names for FIG. 8. (In general: Biolayer interferometry detects binding as a change in optical thickness at a sensor tip.)

Assay [4] concerns the target T3, human CD3 (Delta, Gamma, Epsilon) on the human T cell line Jurkat or on purified human CD3+ T cells (human, UniProt P07766 23-207; P09693 23-182; P04234 22-171).
T3 construct: whole, on cells; On cells CD3 sits in the TCR complex
Kind of assay: FACS, antibody titration on Jurkat cells.

Assay [5] deals with T2, human CD3 Gamma/Epsilon Fc fusion …. Kind of assay: Octet (bio-layer interferometry), bivalent kdis; antigen printed 'Epsilon-Gamma', taken as the human Gamma/Epsilon Fc that paragraph 95 names for FIG. 8.
The target in assay [6] is T3, human CD3 (Delta, Gamma, Epsilon) on …. Briefly: FACS, antibody titration on Jurkat cells. The source holds these as a separate data set.

T3 sequence (P07766 23-207, stated change not applied, chain 1 of 3): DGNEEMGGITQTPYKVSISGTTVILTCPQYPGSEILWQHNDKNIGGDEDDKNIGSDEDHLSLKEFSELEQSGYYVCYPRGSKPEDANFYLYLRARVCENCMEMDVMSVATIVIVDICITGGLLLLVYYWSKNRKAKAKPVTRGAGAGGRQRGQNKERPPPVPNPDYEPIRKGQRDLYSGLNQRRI
T3 sequence (P09693 23-182, stated change not applied, chain 2 of 3): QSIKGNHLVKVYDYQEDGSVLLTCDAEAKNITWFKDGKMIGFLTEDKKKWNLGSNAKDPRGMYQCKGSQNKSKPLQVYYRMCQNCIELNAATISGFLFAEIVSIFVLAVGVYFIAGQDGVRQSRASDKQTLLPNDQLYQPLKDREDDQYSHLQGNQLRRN
T3 sequence (P04234 22-171, stated change not applied, chain 3 of 3): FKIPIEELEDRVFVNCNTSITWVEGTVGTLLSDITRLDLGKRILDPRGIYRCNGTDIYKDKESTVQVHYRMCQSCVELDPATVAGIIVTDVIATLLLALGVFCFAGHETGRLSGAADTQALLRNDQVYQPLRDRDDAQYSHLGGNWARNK

B1: 299F6 1.1 (antibody, human IgG1, kappa, V domains shown)
VH: EVQLVESGGGLVQPGGSLRLSCAASGFTISSNAMSWVRQAPGKGLEWIGVITGRDITYYANWAKGRFTISRDNSKNTLYLQMNSLRAEDTAVYYCARDGGSSAITSNNIWGQGTLVTVSS
VL: DIQMTQSPSTLSASVGDRVTITCQASESISSWLAWYQQKPGKAPKLLIYEASKLASGVPSRFSGSGSGTEFTLTISSLQPDDFATYYCQGYFYFISRSYVNAFGGGTKVEIKR
notes: sheet: mAb '299F6 1.1', format 'humanized'; also called 299F6 humanized
On to B1, for which the koff in assay [1] was determined as 0.0006 s⁻¹.

B2: 480C8 1.1 (antibody, human IgG1, kappa, V domains shown)
VH: B1 VH with F27I, T28D, I29L, N61S, T105N, N107K
VL: B1 VL with S98T
notes: sheet: mAb '480C8 1.1', format 'humanized'; also called 480C8 humanized
Regarding B2, the koff in assay [1] was determined as 0.0005 s⁻¹.

B3: 284A10 1.1 (antibody, human IgG1, kappa, V domains shown)
VH: B1 VH with S31T, N61S
VL: B1 VL with I2V, Q3V, T22N, S98T, A102S
notes: sheet: mAb '284A10 1.1', format 'humanized'; also called 284A10 humanized
In assay [1], B3 had a koff of 0.00053 s⁻¹.

B4: 284A10 (antibody, V domains shown)
VH: QSLEESGGRLVTPGTPLTLTCTVSGFTISTNAMSWVRQVPGKGLEWIGVITGRDITYYASWAKGRFTISKTSSTTVDLKMTSLTAEDSATYFCARDGGSSAITSNNIWGPGTLVTVSS
VL: DVVMTQTPPSVSAAVGGTVTIKCQASESISSWLAWYQQKPGQPPKLLIYEASKLASGVPSRFSGSGSGTEFTLTISDLECADAATYYCQGYFYFISRTYVNSFGGGTEVEFK
With B4, in assay [2], the MFI worked out at 615 MFI.

B5: 299F6 chimeric rabbit/human IgG antibody (antibody, V domains shown)
VH: B4 VH with T30S, V39A, S60N
VL: DVVMTQTPSSVSAAVGGTVTINCQASESISSWLAWYQQKPGQPPKLLIYEASKLASGVPSRFSGSGSGTEFTLTISDLECADAATYYCQGYFYFISRSYVNAFGGGTEVVFKR
Take B5: the figures for the koff in assay [1] and in assay [3] were 0.00049 s⁻¹ and 0.00045 s⁻¹, respectively.

B6: 295E9 (antibody, V domains shown)
VH: B4 VH with F26I, T27D, I28L, T30S, V39A, T56N, N105K
VL: B4 VL with P9A, S12E, K22N, K39R, S63K, T98S, S102A, E110V, F111V
Turning to B6, the MFI in assay [2] turned out to be 549 MFI.

B7: 480A7 chimeric rabbit/human IgG antibody (antibody, V domains shown)
VH: B4 VH with F26I, T27D, I28L, T30S, V39A, N105K
VL: B5 VL with S9A, S12E, K39R
As to B7, in assay [4], the binding result was “binds”. The off-rate constant (koff) in assay [1] turned out to be 0.00066 s⁻¹; in assay [5] it was 0.0006 s⁻¹.

B8: 284A10 chimeric rabbit/human IgG antibody (antibody, V domains shown)
VH: B4 VH
VL: B5 VL with S9P, N22K, S98T, A102S, V110E
As for B8, the results for the koff in assay [1] and in assay [3] were 0.0005 s⁻¹ and 0.0013 s⁻¹, respectively.

B9: 480C8 chimeric rabbit/human IgG antibody (antibody, V domains shown)
VH: B4 VH with F26I, T27D, I28L, T30S, V39A, T103N, N105K, P110Q
VL: B5 VL with S98T, V110E
notes: also called 48008
Regarding B9, in assay [6], the binding result was “binds”. In addition, the koff in assay [1] came to 0.00042 s⁻¹; in assay [3], 0.00054 s⁻¹.

B10: 295E9 chimeric rabbit/human IgG antibody (antibody, V domains shown)
VH: B4 VH with F26I, T27D, I28L, T30S, V39A, T56N, N105K
VL: B5 VL with S9A, S12E, K39R, S63K, F111V
On to B10, for which the koff in assay [1] and in assay [3] was 0.0052 s⁻¹ each time.
